According to patent publication US20130133089A1 (MEDICAL RESEARCH INFRASTRUCTURE AND HEALTH SERVICES FUND OF …, published 2013):

Experiments:
[1] = molecular target: T1, Recombinant human leptin binding domain (hLBD) (human, UniProt P48357 428-635, biotinylated with Sulfo-NHS-LC-Biotin in the yeast display assays; not labelled when immobilized in the plate binding assay); experiment: competitive plate binding assay on immobilized hLBD (FIG. 12C)
T1 construct: CRH2 sub-domain of the leptin receptor; Prepared in the applicants' laboratory; also called soluble human leptin receptor; CHR2
T1 sequence (looked up): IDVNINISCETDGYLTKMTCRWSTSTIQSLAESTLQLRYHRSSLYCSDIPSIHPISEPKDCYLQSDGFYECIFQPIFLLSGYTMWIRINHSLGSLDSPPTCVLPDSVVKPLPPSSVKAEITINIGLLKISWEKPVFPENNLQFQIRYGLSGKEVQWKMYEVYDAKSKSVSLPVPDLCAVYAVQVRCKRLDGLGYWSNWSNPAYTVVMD
Method: (§1) Biotinylated mouse leptin served as the ligand in all competitive experiments and the respective mouse leptin or mouse or human leptin antagonist muteins as competitors. The hLBD was used as the receptor source. Polystyrene 96-well microtiter plates were coated overnight at 4° C. with 100 μl of 40 μM hLBD in PBS pH 7.4. Wells were then washed one time with PBST (PBS containing 0.05 Tween 20) and blocked with PBS containing 3% skim milk for two hours in room temperature. All further incubations were carried out at room temperature. Wells were washed one time with PBST and incubated with different concentrations of un-labeled leptins (50 μl/well) for 30 min and then 50 μl of 62.5 μM of biotinylated mouse leptin were added to each well for another two hours. Then the wells were washed three times with PBST and incubated with 1:30,000 streptavidin-HRP in PBS containing 1 Tween 20 for one hour. Subsequently the wells were washed three times with PBST and the reaction was quantified in 450 nm by microplate reader ELISA Plate Reader ELx808—Bio-Tek Instrument Inc. (Winooski, Vt., USA) using TMB according to manufacturer's instructions.

[2] = molecular target: T1, Recombinant human leptin binding domain …; experiment: competitive plate binding assay on immobilized hLBD (FIG. 12D)
Method: as §1

[3] = molecular target: T1, Recombinant human leptin binding domain …; experiment: competitive plate binding assay on immobilized hLBD
Method: as §1

B1: human leptin super antagonist (SHLA), human leptin D23L/L39A/D40A/F41A (ligand)
chain: VPIQKVQDDTKTLIKTIVTRINLISHTQSVSSKQKVTGAAAIPGLHPILTLSKMDQTLAVYQQILTSMPSQNVIQISNDLENLRDLLHVLAFSKSCHLPWASGLETLDSLGGVLEASGYSTEVVALSRLQGSLQDMLWQLDLSPGC
notes: also called super active human leptin antagonist
B1 was tested, and the “fold increase in the affinity due to D23L mutation (against HLA)” value [1] was 44 fold.

B2: pegylated human leptin super antagonist (PEG-SHLA) (ligand)
chain: B1 chain
modifications: mPEG-propionyl-ALD 20 kDa, preferentially on the N-terminal amino group
B2 was tested, and the “fold increase in the affinity due to D23L mutation (against PEG-HLA)” value [2] was 80 fold.

B3: pegylated mouse leptin antagonist (PEG-MLA) (ligand)
chain: AVPIQKVQDDTKTLIKTIVTRINDISHTQSVSAKQRVTGAAAIPGLHPILSLSKMDQTLAVYQQVLTSLPSQNVLQIANDLENLRDLLHLLAFSKSCSLPQTSGLQKPESLDGVLEASLYSTEVVALSRLQGSLQDILQQLDVSPEC
modifications: pegylated (method previously described for MLA; 20 kDa PEG, site not restated here)
notes: mature; also called pegylated-MLA
In the case of B3, the “fold reduction in affinity by pegylation, as compared to MLA” value [3] is reported as 6.3 fold.
